In publication PMC13669270, “The isolated HEPN domain of SACSIN exhibits RNA-binding activity”:

T1: HEPN domain of SACSIN (tag removed) (UniProt Q9NZJ4 4441-4579)
T1 sequence: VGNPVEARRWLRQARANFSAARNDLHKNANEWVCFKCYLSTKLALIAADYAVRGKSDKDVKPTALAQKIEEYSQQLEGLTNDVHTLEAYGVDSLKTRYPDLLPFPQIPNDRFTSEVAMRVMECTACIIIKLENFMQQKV


Assays:
[1] = target: T1, HEPN domain of SACSIN (tag removed); assay: BLI; BLI: 20 mM potassium phosphate pH 7.4, 150 mM KCl, 0.05% Tween-20, 25 C; pull-down: PBS, 2 mM MgCl2, 0.2% NP-40, 0.05% BSA, RNase inhibitor, room temperature; conditions: protein: recombinant; tags: GST removed by thrombin; chain copies: 2; label: 5' biotin; 1 strand; two putative G-quadruplex-forming stretches
[2] = target: T1, HEPN domain of SACSIN (tag removed); assay: BLI; 75 nM to 10 uM protein; BLI: 20 mM potassium phosphate pH 7.4, 150 mM KCl, 0.05% Tween-20, 25 C; pull-down: PBS, 2 mM MgCl2, 0.2% NP-40, 0.05% BSA, RNase inhibitor, room temperature; conditions: protein: recombinant; tags: GST removed by thrombin; chain copies: 2; label: biotin; 1 strand

Binder | Kd [1] [nM] | binding result [2]
CGGGGGCGGCGGCGGCGGCGGCGGCAGCGGGG (ssRNA) [GC-rich RNA 32 nt (predicted HEPN interacting RNA)] | 2600 ± 300 | 
AACCAACUUUCGAUCUCUUGUAGAUCUGUUCU (ssRNA) [non-GC-rich RNA 32 nt] |  | no binding
